Data published in paper PMC6048692 (Chemical Science, 2018).

Legend:
[1] = target: the molecule itself; test: MoTag2 comet formation, MT plus end tracking
SEC = target: the molecule itself; test: SEC

Protein: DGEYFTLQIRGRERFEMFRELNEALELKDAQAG (domain or fragment) [p53 tetramerization domain (TD), p53 324-356, fused with MoTag2]
- stoichiometry N [1]: 4

B1: DsRed fused to MoTag2 (natural protein)
chain: MRSSKNVIKEFMRFKVRMEGTVNGHEFEIEGEGEGRPYEGHNTVKLKVTKGGPLPFAWDILSPQFQYGSKVYVKHPADIPDYKKLSFPEGFKWERVMNFEDGGVVTVTQDSSLQDGCFIYKVKFIGVNFPSDGPVMQKKTMGWEASTERLYPRDGVLKGEIHKALKLKDGGHYLVEFKSIYMAKKPVQLPGYYYVDSKLDITSHNEDYTIVEQYERTEGRHHLFL
- stoichiometry N (SEC): 4
